# Measured values taken from article doi:10.1101/2020.04.10.035014 (bioRxiv, 2020).
# B1: C-terminus of INTS3 (INTS3c; residues 560-905 and 915-995, co-expressed) (domain or fragment, human)
# chain 1: TVVEEPVDITPYLDQLDESLRDKVLQLQKGSDTEAQCEVMQEIVDQVLEEDFDSEQLSVLASCLQELFKAHFRGEVLPEEITEESLEESVGKPLYLIFRNLCQMQEDNSSFSLLLDLLSELYQKQPKIGYHLLYYLRASKAAAGKMNLYESFAQATQLGDLHTCLMMDMKACQEDDVRLLCHLTPSIYTEFPDETLRSGELLNMIVAVIDSAQLQELVCHVMMGNLVMFRKDSVLNILIQSLDWETFEQYCAWQLFLAHNIPLETIIPILQHLKYKEHPEALSCLLLQLRREKPSEEMVKMVLSRPCHPDDQFTTSILRHWCMKHDELLAEHIKSLLIKNNSLPRK
# chain 2: KLAQLTLEQILEHLDNLRLNLTNTKQNFFSQTPILQALQHVQASCDEAHKMKFSDLFSLAEEYEDSSTKPPKSRRKAALSS
# B2: C-terminus of INTS6 (INTS6c; residues 800-887) (domain or fragment, human, UniProt Q9UL03 800-887, looked up)
# chain: MHCRSHEEVNTELKAQIMKEIRKPGRKYERIFTLLKHVQGSLQTRLIFLQNVIKEASRFKKRMLIEQLENFLDEIHRRANQINHINSN
# B3: INTS3(1-995) (domain or fragment, human, UniProt Q68E01 1-995, looked up)
# chain: MELQKGKGAAAAAAASGAAGGGGGGAGAGAPGGGRLLLSTSLDAKDELEERLERCMSIVTSMTAGVSEREANDALNAYVCKGLPQHEEICLGLFTLILTEPAQAQKCYRDLALVSRDGMNIVLNKINQILMEKYLKLQDTCRTQLVWLVRELVKSGVLGADGVCMTFMKQIAGGGDVTAKNIWLAESVLDILTEQREWVLKSSILIAMAVYTYLRLIVDHHGTAQLQALRQKEVDFCISLLRERFMECLMIGRDLVRLLQNVARIPEFELLWKDIIHNPQALSPQFTGILQLLQSRTSRKFLACRLTPDMETKLLFMTSRVRFGQQKRYQDWFQRQYLSTPDSQSLRCDLIRYICGVVHPSNEVLSSDILPRWAIIGWLLTTCTSNVAASNAKLALFYDWLFFSPDKDSIMNIEPAILVMHHSMKPHPAITATLLDFMCRIIPNFYPPLEGHVRQGVFSSLNHIVEKRVLAHLAPLFDNPKLDKELRAMLREKFPEFCSSPSPPVEVKIEEPVSMEMDNHMSDKDESCYDNAEAAFSDDEEDLNSKGKKREFRFHPIKETVVEEPVDITPYLDQLDESLRDKVLQLQKGSDTEAQCEVMQEIVDQVLEEDFDSEQLSVLASCLQELFKAHFRGEVLPEEITEESLEESVGKPLYLIFRNLCQMQEDNSSFSLLLDLLSELYQKQPKIGYHLLYYLRASKAAAGKMNLYESFAQATQLGDLHTCLMMDMKACQEDDVRLLCHLTPSIYTEFPDETLRSGELLNMIVAVIDSAQLQELVCHVMMGNLVMFRKDSVLNILIQSLDWETFEQYCAWQLFLAHNIPLETIIPILQHLKYKEHPEALSCLLLQLRREKPSEEMVKMVLSRPCHPDDQFTTSILRHWCMKHDELLAEHIKSLLIKNNSLPRKRQSLRSSSSKLAQLTLEQILEHLDNLRLNLTNTKQNFFSQTPILQALQHVQASCDEAHKMKFSDLFSLAEEYEDSSTKPPKSRRKAALSS
# Assays:
# crystal structure = biological target: the molecule itself; assay: crystal structure
# [1] = biological target: B1; assay: crystal structure
# SEC = biological target: the molecule itself; assay: SEC
binder,measurement,setting,value
B1,stoichiometry N,crystal structure,2
B2,binding result,[1],binds
B3,stoichiometry N,SEC,2
